Legend:
Assay in all cases: yeast two-hybrid screen; number of positive colonies with this interactor
Notch 4 = Notch 4 (rat)
Method: (§1) A yeast two hybrid screen was carried out in order to identify A proteins which interact with L119. The entire coding region of the L119 cDNA was amplified in a polymerase chain reaction (PCR) and cloned into vector pPC86. The oligonucleotide primers having the sequences SEQ ID NO: 35 and 36 were used to do this. A 50 μl PCR mixture was prepared from 5 μl of 10× cloned Pfu buffer (Stratagene); 2 μl of DNTP mixture (5 mM; Cat. No. 1969064, Roche Diagnostics GmbH, Mannheim, Germany); in each case 2 μl of the abovementioned primer pairs (stock conc. 10 μM); 100 ng of rL119 cDNA template, 35 μl of H₂O and 1 μl of Pfu turbo DNA polymerase (Stratagene), and, after it had been incubated at 94° C. for 3 minutes, 28 PCR cycles were then carried out in accordance with the following temperature programm: 1 min of primer annealing at 56° C., 1 min of strand extension at 72° C. and 1 min of DNA double-strand melting at 94° C., together with a concluding extension step of 7 min at 72° C. The resulting PCR products were gel-purified, cut with the restriction enzymes SalI and NotI and cloned into the corresponding restriction cleavage sites of pPC86. The DNA construct obtained in this way encodes a protein in which the Gal4 DNA-binding domain is fused to the L119 protein. The yeast strain Y190 (Flick JS and Johnston M (1990) Mol. Cell. Biol. 10, 4757-4769; Harper J et al. (1993) Cell 75, 805-816) (from Life Technologies) was transformed with this construct. The resulting yeast strain was transformed with a rat brain cDNA library (obtained from cortex and hippocampus RNA, following maximal electroconvulsive shock (MECS) (Antony Lanahan and Paul Worley)) in the vector pPC86 (from Life Technologies), and 3×10⁶ transformants were plated out. After 3 to 5 days of growth at 30° C., colonies having a diameter of more than 2 mm were isolated and subjected to X-Gal staining (protocol: ProQuest™ Two-Hybrid System, Cat. Series 10835, Life Technologies) . […] The respective cDNA from these colonies was amplified using vector-specific primers and the-amplicon was sequenced (protocol: ProQuest™ Two-Hybrid System, Cat. Series 10835, Life Technologies). The sequence analysis gave 8 different putative interacting proteins (Table 1): […]

Laminin alpha-4 chain = Laminin alpha-4 chain (rat)
Method: as §1

Matrilin-2 = Matrilin-2 (rat, UniProt A0A8I6GJR4 24-910)
Method: as §1

Nel = Nel (rat, UniProt Q62918)
Method: as §1

Matrilin-2, sequence (A0A8I6GJR4 entry or part of it): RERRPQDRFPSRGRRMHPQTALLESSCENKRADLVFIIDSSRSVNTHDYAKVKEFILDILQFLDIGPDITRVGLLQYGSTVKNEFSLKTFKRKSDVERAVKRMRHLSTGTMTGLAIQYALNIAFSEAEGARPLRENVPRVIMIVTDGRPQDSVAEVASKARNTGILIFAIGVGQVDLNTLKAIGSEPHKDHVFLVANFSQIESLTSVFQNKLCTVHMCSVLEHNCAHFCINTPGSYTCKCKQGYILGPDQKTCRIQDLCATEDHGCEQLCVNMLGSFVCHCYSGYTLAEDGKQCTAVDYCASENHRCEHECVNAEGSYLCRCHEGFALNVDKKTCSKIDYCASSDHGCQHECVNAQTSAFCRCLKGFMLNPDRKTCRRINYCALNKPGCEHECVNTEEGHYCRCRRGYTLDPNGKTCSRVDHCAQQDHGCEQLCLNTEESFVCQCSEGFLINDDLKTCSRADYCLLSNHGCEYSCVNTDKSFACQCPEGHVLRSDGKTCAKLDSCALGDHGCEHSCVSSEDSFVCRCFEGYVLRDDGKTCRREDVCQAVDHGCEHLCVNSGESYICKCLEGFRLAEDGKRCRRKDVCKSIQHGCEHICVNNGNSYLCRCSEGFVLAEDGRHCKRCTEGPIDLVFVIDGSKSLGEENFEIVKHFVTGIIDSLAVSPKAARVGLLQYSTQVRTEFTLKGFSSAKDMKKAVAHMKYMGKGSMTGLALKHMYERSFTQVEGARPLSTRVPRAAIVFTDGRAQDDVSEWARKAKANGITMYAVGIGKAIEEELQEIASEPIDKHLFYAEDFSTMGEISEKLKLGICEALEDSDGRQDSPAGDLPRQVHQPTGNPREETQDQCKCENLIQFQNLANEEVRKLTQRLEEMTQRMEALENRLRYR
Nel, sequence (Q62918 whole entry): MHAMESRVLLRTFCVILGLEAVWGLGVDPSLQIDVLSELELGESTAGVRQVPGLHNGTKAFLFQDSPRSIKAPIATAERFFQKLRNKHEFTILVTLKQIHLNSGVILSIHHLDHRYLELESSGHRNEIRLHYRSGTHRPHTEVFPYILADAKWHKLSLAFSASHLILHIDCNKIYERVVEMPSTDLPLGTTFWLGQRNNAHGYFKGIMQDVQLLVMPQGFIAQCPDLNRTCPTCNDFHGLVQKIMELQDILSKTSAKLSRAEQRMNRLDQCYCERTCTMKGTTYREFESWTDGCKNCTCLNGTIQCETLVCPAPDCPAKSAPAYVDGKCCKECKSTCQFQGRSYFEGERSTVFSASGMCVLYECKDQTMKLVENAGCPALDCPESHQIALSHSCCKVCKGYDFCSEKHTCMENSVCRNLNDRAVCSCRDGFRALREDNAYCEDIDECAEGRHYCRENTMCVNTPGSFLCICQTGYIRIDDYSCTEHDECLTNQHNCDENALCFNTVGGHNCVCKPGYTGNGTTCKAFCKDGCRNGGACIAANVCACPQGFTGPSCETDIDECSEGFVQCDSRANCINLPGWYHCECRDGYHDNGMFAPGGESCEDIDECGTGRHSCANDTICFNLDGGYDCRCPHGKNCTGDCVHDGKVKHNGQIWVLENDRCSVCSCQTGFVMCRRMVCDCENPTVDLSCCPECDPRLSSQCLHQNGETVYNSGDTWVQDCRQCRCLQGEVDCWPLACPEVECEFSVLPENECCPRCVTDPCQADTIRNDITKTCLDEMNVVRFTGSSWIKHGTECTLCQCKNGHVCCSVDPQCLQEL

- # Frequency (Notch 4): 3
- # Frequency (Laminin alpha-4 chain): 1
- # Frequency (Matrilin-2): 1
- # Frequency (Nel): 5
B1: Gal4 DNA-binding domain fused to the L119 protein (yeast two-hybrid bait) (other)
chain: MKLLSSIEQACDICRLKKLKCSKEKPKCAKCLKNNWECRYSPKTKRSPLTRAHLTEVESRLERLEQLFLLIFPREDLDMILKMDSLQDIKALLTGLFVQDNVNKDAVTDRLASVETDMPLTLRQHRISATSSSEESSNKGQRQLTVSMEKWTAWEPQGADALRRFQGLLLDRRGRLHCQVLRLREVARRLERLRRRSLAANVAGSSLSAAGALAAIVGLSLSPVTLGASLVASAVGLGVATAGGAVTITSDLSLIFCNSREVRRVQEIAATCQDQMRELLSCLEFFCQWQGRGDRQLLQSGRDASMALYNSVYFIVFFGSRGFLIPRRAEGATKVSQAVLKAKIQKLSESLESCTGALDELSEQLESRVQLCTKAGRGHNLRNSPDLDAALFF
notes: also called L119 bait
